Measured values reported in paper PMC5043019, “Unique and Universal Features of Epsilonproteobacterial Origins of Chromosome Replication and DnaA-DnaA Box Interactions” (Frontiers in Microbiology, 2016).

B1: Arcobacter butzleri DnaA protein (natural protein, A. butzleri RM4018, UniProt A8EQT0 1-438, looked up)
chain: MTTKEFLTIIQKEANQIDYERYLKQLVYKKVSSDNKIAIFEVNNKYIASWIKSKFTNLIQHCFEIYDGSKPTIEIKLSNEKKSKKEILKEQTQNESTESTILNPSYTFDSFVVGPSNQMAYNASLAVANKPGIQYNPLFIYGGTGLGKTHLLQAVGNHAIEKGNTVIYVTIEQFMNDFTFSIKNKNMEHFRNKYRKCDVLLIDDIQFLSGKEQTQEEFFHTFNELHNAKKQIVMTSDRLPSQIAGLVDRLKSRFEWGLTADVQIPGLETKIAIIEKKSELNGICLSREIINFIATNLDNSIREIEGVLIRINASASLLNQEITLPMVQGLLKEQIKETKENVKLPDIINIVANQLNIKPSDIKSKKRTATVANARRIVIYLVRELTHNSMPDIAKFLGMKDHSAISHNIKKANELIEKDENFKLIIENLKNKIINSRE
notes: chromosomal replication initiator protein DnaA of Arcobacter butzleri RM4018, cloned from genomic DNA; Supplemented with 3 mM ATP for electron microscopy; also called A. butzleri DnaA; source: purified as described in (Zawilak-Pawlik et al., 2006) with minor modifications (Supplementary Materials)
B2: Wolinella succinogenes DnaA protein (natural protein, W. succinogenes DSM 1740, UniProt Q7MSY2 1-437, looked up)
chain: MLGDTTLKQLKDEISTLEYERYIKQLRYDEEASRTDLAVYIAPNQFIANWVKTKYGERLAHLFELSTGIRPKIEIRLGSLKKDVKSSSPKAGVSKGQKSTILNPSFTFDSFVVGNSNRFAYEVSQNVAKKQGIAYNPLLIYGGTGLGKTHLLNSIGNYNVAKGKSVIYVTSEQFLNDYLYHIRNNTMDRFRDKYRACDYLLIDDVQFFGGKPQIQEEFFHTFNELHNKNKQIVLTSDKTPKQIAGLEERLKSRFEWGMVSDIQPPELETKINIIKKKCEFDGIYLSNEIISYIATNMDNNIREIEGIIIKLNAYANLMNQEITLQFAKNVLKEQIKEERENITLENIIEVVSKELNVKPAEIKSKGRSKNIANARRIVIFLARTLTPNSMPSLAQFFGMKDHSSVSKAMKTVKTEIEEDANFKMVIEELKNKIKSRN
notes: chromosomal replication initiator protein DnaA of Wolinella succinogenes DSM 1740, cloned from genomic DNA; Supplemented with 3 mM ATP for electron microscopy; also called W. succinogenes DnaA; source: purified as described in (Zawilak-Pawlik et al., 2006) with minor modifications (Supplementary Materials)

Target: the molecule itself
Test: electron microscopy; purified DnaA (3 mM ATP) incubated with supercoiled plasmids carrying oriC1-dnaA-oriC2 (pAbori1ori2, pSdori1ori2, pWsoriori2); complexes stabilised by glutaraldehyde cross-linking, linearised with ScaI; looped DNA with one protein complex joining oriC1 and oriC2; DnaA molecules are DNA-bound

Protein	binding result
B1	binds
B2	binds
